Data on 3 molecules can be found in patent US20110059015A1, “VACCINE” (priority 2002, published 2011).

Positions count from the first letter of the chain named.

One experiment relates to HIV-1 SF-2. Briefly: Infectivity reduction assay (IRA) in MT-2 cells, SF-2. It is filed as cell-based. Conditions: Fab 10 μg/ml, SF-2, MT-2 cells. As for the experimental part:
(§1) The infectivity reduction assay (IRA) was performed using in MT-2 cells. Virus titer of LAI, SF-2, MN and RF strains was determined in MT-2 cells and expressed as TCID50 (50% tissue culture infective doses), calculated by the Spearman-Karber formula. Five 10-fold virus dilutions were mixed with different concentrations of Fabs S20, S19, S8, M02 and M025 and incubated (37° C., 1 h, 5% CO2), then added to a 96-well microtiter plate containing 10^5 MT-2 cells/well. Fresh medium (100 μl) was added 4 days later. Cytopathic effect (CPE), characterised by the appearance of giant multinuclear cells, was quantified on day 7. Six replicate wells were made for each dilution. Neutralisation was calculated by the formula % neutralisation=(1−p/n)×100, where p is the mean titer in TCID50/ml of virus produced in cultures incubated with the correspondent mixture and n is the mean titer of virus produced in cultures incubated without Fabs. Each titer point is the mean of two individual experiments.

The next experiment deals with HIV-1 X4 (NL4-3). Briefly: p24 quantification after PBMC infection, X4 strain. Type of experiment: cell-based. The note with it: NL4-3, PBMC, p24 on day 7. As for the experimental part:
(§2) Excess virus and Fab were removed by washing, and PBMC incubated in complete RPMI 1640 at 37° C. Every two days after infection, half the culture supernatant (500 μl) was removed and replaced with fresh medium containing rhIL-2 and Fabs at the above concentration. Cell-free supernatants were tested for HIV-1 p24 antigen on day 7 using a commercial ELISA test (Coulter, Miami, Fla.). The percentage of neutralisation was calculated as the ratio between p24 levels for test samples a lone or with Fabs. Irrelevant HmFab P1 (10 μg/ml) was used as a negative control.

The next experiment concerns HIV-1 LAI strain. Briefly: Infectivity reduction assay (IRA) in MT-2 cells, LAI. Conditions: Fab 10 μg/ml. It is filed as cell-based. Here is the method: as §1
In the next experiment the test system is HIV-1 Bal. The experiment can be described thus: In vivo neutralisation of HIV-1 Bal infection in SCID-hu-PBMC mice. Conditions: Fab 100 μg i.p. x3. An excerpt:
(A) Neutralisation of the HIV-1 MN strain by IgM Fabs M02 and M025 and IgG Fabs S8, S19 and S20 determined by plaque assay (NPA) in MT-4 cells. […] SCID mice grafted with adult human PBMC (SCID-hu-PBMC) sensitive to HIV-1 infection were infected 2 weeks after reconstitution with cell-free HIV-1 Bal stocks containing 100 TCID50. […] Peritoneal cells were recovered after 15 days and co-cultured with PHA-activated PBMC from HIV-1-seronegative individuals. Co-cultures were monitored in ELISA for HIV-1 core antigen in supernatant at days 7 (left) and 14 (right), and were considered positive when p24 was >30 ng/ml.
CB.17 SCID/SCID mice were bred and maintained under specific pathogen-free conditions in the Centro Nacional de Biotecnologia animal facility. Eight- to 10-week-old non-leaky phenotype mice were reconstituted by i.p. injection of 20×10^6 freshly isolated normal human PBMC. […] Mice were infected 2 weeks after PBMC reconstitution by i.p. injection of 0.5 ml of diluted cell-free HIV-1 Bal stocks containing 100 TCID50. Two weeks after viral challenge, mice were killed by cervical dislocation and peritoneal cells obtained by washing with ice cold PBS. […] Co-cultures were monitored by ELISA for HIV-1 core antigen in supernatant on days 7 and 14, and were considered positive when p24 was >30 ng/ml.

In the next experiment the test system is HIV-1 R5 (Bal). Briefly: p24 quantification after PBMC infection, R5 strain. Conditions: p24 on day 7. It is filed as cell-based. Here is the method: as §2
In another experiment the target is gp120 III-B (Human immunodeficiency virus type 1 group M subtype B, UniProt P04578). Conditions: donor serum 1/200, Fab 0.01-30 μg/ml.
Experiment [1] concerns donor virus isolate (LTNP HIV-1). The experiment can be described thus: IRA in PBMC with donor virus isolate. Type of experiment: cell-based. Conditions: Fab 25 μg/ml. Here is the method:
PBMC obtained from the patient in 1996 were cocultured with HIV-1-seronegative PBMC which had been stimulated for 3 days with phytohemagglutinin (PHA). Coculture was maintained in medium with interleukin-2 (IL-2) for at least 40 days (37° C., 5% CO2). Fresh PBMC were added each week and p24 antigen production was monitored every 7 days. Supernatant was harvested and characterised by TCID50% on stimulated PBMC. Supernatant (1 ml) from the coculture (1.3×10^3 TCID50%) was inoculated in 10×10^6 PBMC. After incubation (1 h, 37° C.), cells were centrifugated and 10 ml of RPMI with […] were added. Virus was grown and harvested. This first-passage virus stock was used to perform the IRA in PBMC. […] Medium with IL-2 was changed twice a week. After 14 days, the p24 assay was performed and TCID50% calculated. Neutralisation titer was calculated according to the formula given above.

In a further experiment the test system is HIV-1 MN. Briefly: Infectivity reduction assay (IRA) in MT-2 cells, MN. It is filed as cell-based. The note with it: Fab 10 μg/ml. Here is the method: as §1
The subject of another experiment is HIV-1 RF. The experiment can be described thus: Infectivity reduction assay (IRA) in MT-2 cells, RF. It is filed as cell-based. The note with it: Fab 10 μg/ml. As for the experimental part: as §1
For a further experiment, the system named is HIV-1 MN strain. Briefly: Neutralisation plaque assay (NPA) in MT-4 cells. It is filed as cell-based. As for the experimental part:
A neutralisation plaque assay (NPA) was established in MT-4 cells (Harada, et al., 1985) with minor modifications (Sánchez, et al., 1993). Six-well plates (Costar, Calif.) were incubated with 1 ml of poly-L-lysine (50 μg/ml, Sigma) for 60 min at room temperature and washed three times in phosphate-buffered saline (PBS, pH 7). MT-4 cells (4×10^6/well) were added and incubated 2 h, after which unbound cells were removed. Neutralisation was performed with 100 plaque-forming units (pfu) of virus and five purified Fabs (S20, S19, S8, M02 and M025) at different concentrations. The virus-antibody mixture was incubated (37° C., 3 h), slowly added to the plates and adsorbed (37° C., 90 min), after which virus was removed and 2 ml of agarose medium (0.2% SeaPlaque agarose in complete RPMI medium) were added. Plates were incubated (37° C., 5% CO2 atmosphere), and 2 ml of agarose medium were added on day 3. Plaque production was counted with the naked eye on day 7. Neutralisation titer was calculated according to the formula % neutralisation=(1−p/n)×100, where p is the amount of virus produced in presence of the corresponding Fab, n is the mean amount of virus produced without Fab, measured by number of plaques in cultures.

B1: Fab S8: human IgG1 anti-gp120 Fab from LTNP donor; light chain SEQ ID 2, heavy chain SEQ ID 4 (antibody, listed as Homo sapiens)
heavy: LESGGGLVKPGGSLRLSCAASGFTFSSYAMHWVRQAPGKGLEWVAFIWFDGSNERYADSVKGRFTITRDNPKNTLYLQMNSLRVEDTAVYYCVRRGGSILTGFHLDYWGQGTLVTVSSASTKGPSVFPLAPSSKSTSGGTAALGCLVKDYFPEPVTVSWNSGALTSGVHTFPAVLQSSGLYSLSSVVTVPSSSLGTQTYICNVNHKPSNTKVDKRVEPKSCDKTS
light: ELTQSPSSLSASVGDRVTITCRASQGIRDDLGWYQQKPGKAPKRLIYAASNLQSGVPSRFSGGGSGTEFTLTISSLQPEDFATYYCLQHNSYPLTFGGGTKVEIKRTVAAPSVFIFPPSDEQLKSGTASVVCLLNNFYPREAKVQWKVDNALQSGNSQESVTEQDSKDSTYSLSSTLTLSKADYEKHKVYACEVTHQGLSSPVTKSFNKGKVLIL
modifications: S8 Heavy chain; Light chain
Consider B1, for which the “% neutralisation” value with HIV-1 SF-2 is listed as “greater than 90%”; in experiment [1] it was 32%; in the experiment on HIV-1 MN, “greater than 90%”; in the experiment with HIV-1 RF it was “greater than 90%”; in the experiment on HIV-1 MN strain (Fab 10 μg/ml), 100%. Besides, the “Fab concentration for 50% neutralisation” value in the experiment on HIV-1 X4 (NL4-3) and in the experiment on HIV-1 R5 (Bal) was “less than 0.1 μg/ml” in each case. Also, in the experiment with HIV-1 LAI strain, the neutralisation entry is “poorly neutralised”. The “Fab-treated mice with undetectable p24” value was 100% in the experiment with HIV-1 Bal (co-culture day 7, 100 TCID50 HIV-1 Bal) and “seven of eight” with HIV-1 Bal (co-culture day 14, 100 TCID50 HIV-1 Bal). In the experiment with gp120 III-B, the “inhibition of gp120 binding of donor serum IgG” value was “inhibited”.

B2: Fab S20: human IgG1 anti-gp120 Fab; light chain SEQ ID 2, heavy chain SEQ ID 8 (antibody, listed as Homo sapiens)
heavy: B1 heavy with L7V, K9Q, G12R, A19S, T24S, S26R, S27D
light: B1 light
modifications: S20 Heavy chain; Light chain
As to B2, the “% neutralisation” value with HIV-1 MN strain (Fab 1 μg/ml) is recorded as 100%.

B3: Fab S19: human IgG1 anti-gp120 Fab; light chain SEQ ID 2, heavy chain SEQ ID 6 (antibody, listed as Homo sapiens)
heavy: B1 heavy with L7V, K9Q, G12R, T24S, Y28H, A29G
light: B1 light
modifications: S19 Heavy chain; Light chain
For B3, in the experiment on HIV-1 MN strain (Fab 20 μg/ml), the “% neutralisation” value stood at 92%.
